Experimental data from US20230257452A1 (GTINVENT, published 2023).

Columns and labels:
dGAE (tau 297-391) [1] = target: T1, dGAE (tau 297-391) (human, UniProt P10636 614-708); test: tau-tau immunoassay: scAb preincubated with 100 nM dGAE; blocked ligand: plate-bound dGA (1000 nM); bound dGAE detected with E2E8
T1 construct: also called dGAE95
Protocol: The adapted method is as follows: dGA (1000 nM) was adsorbed to a Nunc 96-well MaxiSorp plate and incubated for 1 h at 37° C. Plates were subsequently washed 3 times with PBST which was performed after each 1 h incubation. The plates were blocked with 2% (w/v) dried milk powder in PBS for 1 h at 37° C. […] The secondary antibody used was HRP-conjugated Anti-mouse IgG (1:1000 dilution, Sigma) and incubated at RT for 1 h. The plate was subsequently developed, and readings taken at absorbance 450 nm.

[2] = target: T2, full length human tau protein (2N4R, isoform Tau-F, 441 amino acids) (human, UniProt P10636 1-758); test: sandwich ELISA, S1D12 mAb capture, hT40 titrated, detection scAb, chemiluminescent
T2 construct: also called hT40; htau40
Protocol: (§1) Full length tau (hT40), at 1 μg/ml starting concentration was added to designated wells and double diluted across rest of the plates and left to incubate at R/T for 1 h. A series of detection scAbs with varying epitope recognition properties were added at 10 μg/ml to designated wells (FIG. 22). For colourimetric detection HRP conjugated anti-HuCk secondary antibody was used and the resulting immunoreaction was developed and absorbance at 450 nm measured as described previously. Cut-off point for a positive binding event was an absorbance value of 0.3 following background subtraction. In order to enhance the assay sensitivity, a chemiluminescent detection method was adopted where 50 μL SuperSignal ELISA Femto Substrate (Thermo Scientific) was added to each well following incubation with anti-HuCK HRP antibody and subsequent washing. The luminescence was read using Clariostar Plus microplate reader. A further modification to this protocol was done where various detection scAbs were directly conjugated with HRP and detected using chemiluminescent protocol as before.

[3] = target: T2, full length human tau protein (2N4R, …); test: sandwich ELISA, S1D12 mAb capture, hT40 titrated, detection scAb at 10 ug/ml, colourimetric
Protocol: as §1

[4] = target: T2, full length human tau protein (2N4R, …); test: ELISA, hT40 coated, scAb titrated
dGAE aggregates = target: T3, dGAE aggregates (human, UniProt P10636 614-708, limits assumed); test: capture ELISA, mAb coated at 1 ug/ml, dGAE aggregates titrated, S1G2 scAb detection
T3 construct: 100 µM dGAE aggregated with DTT at 37 °C, 700 rpm, 24 h; also called aggregated dGAE

dGAE (tau 297-391) [5] = target: T1, dGAE (tau 297-391); test: ELISA, antigen coated, scAb titrated
Source text: The plates were blocked with 2% MPBS and scAb samples added at desired starting concentrations and double diluted across the plate. Binding was detected using anti-Human C Kappa HRP conjugated secondary antibody and the resulting immunoreaction was developed and absorbance values measured as described above.

T1 sequence (P10636 614-708 limits assumed): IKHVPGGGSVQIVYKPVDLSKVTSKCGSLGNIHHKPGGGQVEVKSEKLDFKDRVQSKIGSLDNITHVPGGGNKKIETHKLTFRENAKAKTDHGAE
T2 sequence (P10636 other isoform, or with tags, fused parts or gaps limits assumed): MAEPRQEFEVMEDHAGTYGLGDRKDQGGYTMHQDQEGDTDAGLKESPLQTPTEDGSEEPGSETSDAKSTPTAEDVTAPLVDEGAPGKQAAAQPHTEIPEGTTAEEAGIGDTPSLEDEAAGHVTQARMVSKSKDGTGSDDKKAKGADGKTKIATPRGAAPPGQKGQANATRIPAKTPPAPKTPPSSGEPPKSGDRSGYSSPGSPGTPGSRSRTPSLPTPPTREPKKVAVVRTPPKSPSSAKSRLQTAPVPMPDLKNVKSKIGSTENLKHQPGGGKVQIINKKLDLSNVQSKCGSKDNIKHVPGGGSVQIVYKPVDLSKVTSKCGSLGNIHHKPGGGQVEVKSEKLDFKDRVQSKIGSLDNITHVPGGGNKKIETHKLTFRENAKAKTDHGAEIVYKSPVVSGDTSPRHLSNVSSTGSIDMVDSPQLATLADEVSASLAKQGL
T3 sequence (P10636 614-708 limits assumed): as the sequence (P10636 614-708 limits assumed) above

| Binder | B50 (dGAE (tau 297-391) [1]) [nM] | LoD (ng/ml) chemiluminescence detection [2] [ng/mL] | LoD (ng/ml) colourimetric detection [3] [ng/mL] | other results |
| --- | --- | --- | --- | --- |
| S1D9 scAb (scFv, not shown: human C kappa domain and hexa-His tag of the scAb format) scFv: QVQLQESGPSLVKPSQTLSLTCTVSGFSLTSNSVGWVRQAPGKAPEWVAGIDSDGEEGYNPALNSRLSITRDTSKNQVSLSLSRVTSEDTAVYYCGRTYRTDGYAYGYVQAIDYWGPGLLVTVSSEGKSSGASGESKVDDRVMLTQPPSVSGSPGQTVSITCSGSFIGISSVGWFQQLPGSGLRTVIFASDGRPSGVPDRFSNSKSGNTATLTISSLQAEDEADYFCGSSDRTQYTGVFGSGTRLTVLS | 107 |  |  |  |
| CA4 scAb (scFv, not shown: human C kappa domain and hexa-His tag of the scAb format) scFv: QVQLQESGPSLVKPSQTLSLTCTVSGFSLTSYSVYWVRQAPGQALEWISIMYASGRVDYNPALKSRLSITRDTSKSQFSLSLSSVTTEDTAVYYCTRGIENWGPGLLVTVSSEGKSSGASGESKVDDDIQVTQSPSSLSASLTERVSITCRTSQSVNNYLSWYQQKPGQAPKLLIYYATRLYTDVPSRFSGSGSGTDYTLTITSLEADDTATYYCLQYDSTPLAFGGGTNVEIK | 221 | 0.37 | 6 |  |
| S1G10 scAb (scFv, not shown: human C kappa domain and hexa-His tag of the scAb format) scFv: QVQLQESGPSLVKPSQTLSLTCTVSGFSLTSNSVGWVRQAPGKAPEWVAGIDTDGEEGYNPALNSRLSITRDTSKSQVSLSLSSVTSEDTAVYYCGRSYRADGLAYGYVQAIDYWGPGLLVTVSSEGKSSGASGESKVDDQAVLTQPSSMSGSLGQRVSITCSGSFIGISSVGWFQQLPGSGLRTIIVASDGRPSGVPDRFSMSKSGNTATLTISSLQAEDEADYFCGSSDRTQYTGVFGSGTRLTVLG | 207 | 0.12 | 2 |  |
| S1B1 scAb (scFv, not shown: human C kappa domain and hexa-His tag of the scAb format) scFv: QVQLQESGPSLVKPSQTLSLTCTVSGFSLSSNSVGWVRQAPGKAPEWVAGIDTDGEEGYNPALNSRLSITRDTSKSQVSLSLSSVTSEDTAVYYCVRSYRTDGLAYGYVQAIDYWGPGLLVTVSSEGKSSGASGESKVDDQAVLTQPSSVSGSLGQRVSITCSGSFIGISSVGWFQQLPGSGLRTVIVASDGRPSGVPDRFSNSKSGNTATLTISSLQAEDEADYFCGSSDRTQYTGVFGSGTRLTVLG | 101 |  |  |  |
| S1E12 scAb (scFv, not shown: human C kappa domain and hexa-His tag of the scAb format) scFv: QVQLQESGPSLVKPSQTLSLTCTVSGFSLGSNSVGWVRQAPGKAPEWVAGIDTDGEEGYNPALNSRLSITRDTSKSQVSLSLSSVTSEDTAVYYCGRSYRADGLAYGYVQAIDYWGPGLLVTVSSEGKSSGASGESKVDDRVVRTQPSSVSGSLGQRVSITCSGSFIGISSVGWFQQLPGSGLRTIIVASDGRPSGVPDRFSMSKSGNTATLTISSLQAEDEADYFCGSSDRTQYTGVFGSGTRLTVLG | 92 |  |  |  |
| S1F4 scAb (scFv, not shown: human C kappa domain and hexa-His tag of the scAb format) scFv: QVQLQESGPSLVKPSQTLSLTCTVSGFSLSSNSVGWVRQAPGKAPEWVAGIDTDGEEGYNPALNSRLSITRDTSKSQVSLSLSSVTSEDTAVYYCVRSYRADGLAYGYVQAIDYWGPGLLLTISSEGKSSGASGESKVDDQAVVTQPSSVSGSLGQRVSITCSGSFIGISSVGWFQQLPGSGLRTVIVASDGRPSGVPDRFSNSKSGNTATLTISSLQAEDEADYFCGSSDRTQYTGVFGSGTRLTVLG |  |  |  | EC50 (read off the curve) [4]: ~0.05 µg/mL |
| S2C6 scAb (scFv, not shown: human C kappa domain and hexa-His tag of the scAb format) scFv: QVQLQESGPSLVKPSQTLSLTCTVSGFSLISNSVGWVRQAPGKAPEWVAGIDTDGEEGYNPALKSQYAASDPDTSKSQVSLSLSSVTSEDTAVYYCGRTYRTDGFAYGYVQAIDYWGPGLLLTISSEGKSSGASGESKVDDQAVLTQPSSVSGSLGQRVSITCSGSFIGISSVGWFQQLPGSGLRTIIVASDGRPSGVPDRFSMSKSGNTATLTISSLQAEDEADYFCGSSDRTQYTGVFGSGTRLTVLG | 51 |  |  |  |
| CC7 scAb (scFv, not shown: human C kappa domain and hexa-His tag of the scAb format) scFv: QVQLQESGPSLVKPSQTLSLTCTVSGFSLTSNAVIWVRQAPGKAPEWVALIDVDGDAAYDPALKSRLSITRDTSKSQVSLSLRSVTTEDTAVYYCARDYGSWGYVSDIDYWGPGLLVTVSSEGKSSGASGESKVDDRVVRTQPSSVSGSLGQRVSITCSGSYITGSSVGWFQQVPGSGLKTVIYDNNDRPSGVPDRFSGSKSGDTATLTISSLQAEDEADYYCASYDTSNIGLFGSGTRLTVLG |  | 3.33 | 6 |  |
| CA12 scAb (scFv, not shown: human C kappa domain and hexa-His tag of the scAb format) scFv: QVQLQGSGPSLVKPSQTLSLTCTVSGFSFDSYYVGWVRQAPGKALEWLGNIYSTGRAFYNPALKSRLSITRDTSKSQVSLSVSSVTIEDTALYYCVRGSYYHGGGNGMVDFFDYWSPGLLVTVSSEGKSSGASGESKVDDQVVRTQPSSVSGSLGQRVSITCSGSSSNVGYGNYVGWFQQVPGSAPKLLIYAATSRASGVPDRFSGSRSGNTATLTIDSLQAEDEADYYCSSYQRGNTGVFGSGTRLTVLG | 59 |  |  | EC50 (read off the curve) [4]: ~0.02 µg/mL |
| CB7 scAb (scFv, not shown: human C kappa domain and hexa-His tag of the scAb format) scFv: QVQLQESGPSLVKPSQTLSLTCTVSGFSLTNYRVGWVRQAPGKALEWVSNIRSGGTTWYNPALKSRLSITADTSKSQVSLSLSSVTTEDTAVYYCARDSSGDLYAYDYWGPGLLVTVSSEGKSSGASGESKVDDQAVLTQPSSVSRSLGQSVSMTCSGSSSNVGYGNYMAWFQQVPGSAPKLLIYGATSRASGVPDRFSGSRSGNTATLTISSLQAEDEADYYCASYDSTSGGVFGSGTRLTVLG |  | 3.33 | 15 |  |
| 412E10 scAb (scFv, not shown: human C kappa domain and hexa-His tag of the scAb format) scFv: QVQLQESGPSLVKPSQTLSLTCTVSGFSVISDSVAWVRQAPGKVPEWLGASGSSGNKYYNPALKSRLSITRDTSKSQVSLSLSSVTTEDTAVYYCARGIIAGVDVWGRGLLVTVSSEGKSSGASGESKVDDQAVLTQPSSVSGSLGQRVSITCSGSSSNVGYGNYVGWYQQVPGSAPKLLIYGTAIRASGVPDRFSGSRSGDTATLTITSLQAEDEADYYCASYQSNYAFFGSGTRLTVLG |  | 0.37 | 20 |  |
| E2E8 mAb (antibody, mouse IgG2a, V domains shown, sheep-mouse (IgG2a) chimeric mAb) VH: QVQLQESGPSLVKPSQTLSLTCTVSGFSLTDRGVAWVRQAPGKALEWVGTMRSGGTIDYNPALKSRLSITRDTSKSQVFLSLSSVTTEDMAMYYCARGYLSGDRYAWGRGLLVTVSS VL: QAVLTQPSSVSKSLGQSVSIACSGSRSDIGYGNYVSWFQQIPGSAPKLLIYDTNTRASGVPDRFSGARSGNTATLTINSLQAEDEADYYCANIDSSRSHLFGSGTRLTVLG |  |  |  | binding result (dGAE aggregates): binds |
| CE2 scAb (scFv, also called CE2/E1B8; not shown: human C kappa domain and hexa-His tag of the scAb format) scFv: QVQLQESGPSLVKPSQTLSLTCTVSGFSLTNYPVGWVRQAPGKALEWIGNIENDGSANYASALKSRLSITRDTSKNQVSLSLSSATTEDTAVYYCGREFGGSDGYTYFVDIDYWGPGLLVTVSSEGKSSGASGESKVDDQAVLTQPSSVSKSLGQSVSITCSGSSSNVGYGNYVSWFQQVPGSAPKILIYGATSRASGVPDRFSGSRSGNTATLTITSLQAEDEADYYCASYDGSSSGVFGSGTRLTVLG | 211 |  |  |  |
| CB2 scAb (scFv, not shown: human C kappa domain and hexa-His tag of the scAb format) scFv: QVQLQESGPSLVKPSQTLSLTCTVSGFSLSTNSVGWVRQAPGKAPEWVAGIDTDGEEGFNPVLKSRLSITRDTSKSQVSLSLSNVTSEDTAVYYCGRSYRTDGLAYGYVQAIDYWGPGLLVTISSEGKSSGASGESKVDDQSVLTQPSSVSGSPGQTVSITCSGSYIGSSGVGWFQQLPGSGLRTIIVASDGRPSGVPDRFSMSKSGNTATLTISSLQAEDEADYFCGSSDRTQYTGLFGSGTRLTVLG | 93 |  |  |  |
| E2B7 scAb (scFv, not shown: human C kappa domain and hexa-His tag of the scAb format) scFv: QVQLQESGPSLVKPSQTLSLTCTVSGFSLTSWGVAWVRQAPGKALEWLGTMRSGGGTEYNPALKSRLSITRDTSKSQVSLSLSSVTTEDMAMYYCARGYLSGIHYAWGRGLLVSVSSEGKSSGASGESKVDDQAVLTQLSSVSGSLGQRVSITCSGSSSNVGDGDYVGWFQQLPGSAPKLLIYSARNRASGVPDRFSGSRSGNTATLTITSLQAEDEADYYCASIDTSRSHIFGSGTRLTVLG |  |  |  | binding result (dGAE (tau 297-391) [5]): binds |
| CE3 scAb (scFv, not shown: human C kappa domain and hexa-His tag of the scAb format) scFv: QVRLQESGPSLVKPSQTLSVTCTVSGFSLISNAVGWVRQAPGKVPESLAGCSSDGKCYYNSALKSRLDITRDTSKNQISLSLSSVTTDDAAVYYCTRGYYPVYGYDYLGTIDYWGPGLLVTVSSEGKSSGASGESKVDDQAVLTQPSSVSGSLGQRVSITCSGSSSNVGRNDVAWFQQLPGSGLRTIIYGTTSRPSGIPDRFSGSKSGVTATLTIDSLQAEDEADYFCASGDSSAINDIFGSGTRLTVLG | 209 |  |  |  |
